# The RNAGym collection of RNA variant scans (doi:10.1073/pnas.2313332121)
# Fewer inactive variants are shown than the library holds.
# B1: TPR 5TU (parent)
# chain: GGAUCUUCUCGAUCUAACAAAAAAGACAAAUCUGCCACAAAGCUUGAGAGCAUCUUCGGAUGCAGAGGCGGCAGCCUUCGGUGGCGCGAUAGCGCCAACGUUCUCAACUAUGACACGCAAAACGCGUGCUCCGUUGAAUGGAGUUUAUCAUG
# Variants of: B1
# Experiment: polymerase ribozyme fitness, log enrichment relative to wild type (log ratio); higher = more active; in vitro selection for triplet polymerase activity
# Method in brief: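 Both subunits of a heterodimeric triplet polymerase ribozyme were given their own mutant library, built by PCR and transcribed. Each library was annealed with a biotinylated primer, the partner subunit and triplets, incubated frozen at −7 °C, and its extended constructs gel-excised, captured on streptavidin beads and amplified by RT-PCR, all in one round done in triplicate. Fitness is the logarithm of genotype enrichment relative to wild-type enrichment, with replicates averaged by inverse-variance weighting. That logarithm is base 2, and Illumina-sequenced genotypes needed ≥10 input reads and ≥1 read per output.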
row,Variant,polymerase ribozyme fitness (log ratio)
1,GGAUCUUCUCGAUCUAACAAAAAAGACAAAUCUGCCACAAAGCUGGAGAGCAUCUUUGGAUGCAGAGGCCGCAGCAUUCGGUGGCGCGAUGGAGCCAACGUUCUCAACUAUGACACGCAAAACGCGUGCUCCGUUGAAUGGAGUUUAUCAUG [U45G C57U G70C C76A A91G C93A],≤ -4.2
2,GGAUCUUCUCGAUCUAACAAAAAAGACAAAUCUGCCACAAAGCUGGAGAGCAUAAUCGGAUGCAGAGGCGGCAGCCUUCGGUGGGGCGAUAGCGCCAACGUUCUCAACUAUGACACGCAAAACGCGUGCUCCUUUGAAUGGAGUUUAUCAUG [U45G C54A U55A C85G G133U],≤ -4.2
3,GGAUCUUCUCGAUCUAACAAAAAAGACAAAUCUGCCACAAAGCUGGAGAGUAUCUUCGGAUGCAGAGGCGGCAGCCUUCGGUGGCGCGAUAGCGACAACGUUCUCAACUAUGACACGCAAAACGUGUGCUCCGUUGAAUGGAGUUUAUCAUG [U45G C51U C95A C125U],-3.64
4,GGAUCUUCUCGAUCUAACAAAAAAGACAAAUCUGCCACAAAGCUGGAGAGCAUCUUCGGAUGCAGAGGCGGCAGCCUUCGGUGGCGCGAUAGCGCCAACGUUAUCAACUAUGACACGCAAAACGCGUGCUCCGUUGAAUGGAGUUUAUCUUG [U45G C103A A150U],≤ -4.2
5,GGAUCUUCUCGAUCUAACAAAAAAGACAAAUCUGCCACAAAGCUGGAGAGCAUUUUCGGAUGCAGAGGCGGCAGCCUUCGGUGGCGCGAUAGCGCCAACGUUCUCAACUGUGACACGCAAAACGCGUGCUCCGUUGAAUGGAGUUUAUCAUG [U45G C54U A110G],≤ -4.2
6,GGAUCUUCUCGAUCUAACAAAAAAGACAAAUCUGCCACAAAGCUGGAGAGCAUCUUCGAAUGCAGAGGCGGCAGCCUUCGGUGGCGCGAUAGCGCCAACGUUCUCAACUAUGACACGCAAAACGCGUGCUCCGUUGAAUGGAGUUUAUCAUG [U45G G59A],-0.523
7,GGAUCUUCUCGAUCUAACAAAAAAGACAAAUCUGCCACAAAGCUGGAGAGCAUCUUCGGAUGCAGAGGCGGCAGCCUUCGGUGGCGCGAUAGAGCCAACGUUCUCAACUAUGUCAUGCAAAACGCGUGCUCCGUUGAAUGGAGUUUAUCAUG [U45G C93A A113U C116U],≤ -4.2
8,GGAUCUUCUCGAUCUAACAAAAAAGACAAAUCUGCCACAAAGCUGGAGAGCAUCUUCGGAUGCAGAGGCGGCAGCAUUCGGUGGCGCGAUAGCGCCAACGUUCUCAACUAUGACACGCAAAACGCGUGGUCCGGUGAAUGGAGUUUAUCAUG [U45G C76A C129G U134G],≤ -4.2
9,GGAUCUUCUCGAUCUAACAAAAAAGACAAAUCUGCCACAAAGCUGGAGAGCAUCUUCGGAUGCAGAGGCGGCAGCCUUCGGUGGCGUGAUAGCGCCAACGUUCUCAACUAUGACACGCAAAACGCGUGCUCCGUUGAAUGGAGUUUAUCAUG [U45G C87U],-1.32
10,GGAUCUUCUCGAUCUAACAAAAAAGACAAAUCUGCCACAAAGCUGGAGAGCAUUUUCGGAUGCAGAGGCGGCAGCCUUCGGUGGCGCGAUAGCGCCAACGUUCUCAACUAUGACACGCUAAACGCGUGCUCCGUUGAAUGGAGUUGAUCAUG [U45G C54U A119U U146G],-2.19
11,GGAUCUUCUCGAUCUAACAAAAAAGACAAAUCUGCCACAAAGCUGGAGAGCAUCUUCGCAUGCAGAGGCGGCAGCCUUCGGUGGCGCGAUAGCGCCAAAGUUCUCAACUAUGACACGCAAAACGCGUGCUCCGUUGAAUGGAGUUUAUCAGG [U45G G59C C99A U151G],≤ -4.2
12,GGAUCUUCUCGAUCUAACAAAAAAGACAAAUCUGCCACAAAGCUGGAGAGCAUCUUCGGAUGCAGAGGCGGCAGCCUUCGGUGGCGCGAUAGCGCCAACGUUCUCAACUAUGAUACGCAAAACGCGUGCUCCGUUGAAUGGAGUUUAUCAUG [U45G C114U],-2.91
13,GGAUCUUCUCGAUCUAACAAAAAAGACAAAUCUGCCACAAAGCUGGAGAGCAUCUUCGGAUGCAGAGGCGGCAGCCUUCGGUGGCGCGAUCGCGCCAACGGUCUCAACUAUGACACGCAAAACGCGUGCUCCGUUGAAUGGAGUUUCUCAUG [U45G A91C U101G A147C],≤ -4.2
14,GGAUCUUCUCGAUCUAACAAAAAAGACAAAUCUGCCACAAAGCUGGAGAGCAUCUUCGGAUGCAGAGGCGGCAGCCUUCGGUGGCGCGAUAGCGCCAACGUUCUCAACUAUGACGCGCAAAACGCGUGCUCCGUUGAAUGGAGUUUAUCAUG [U45G A115G],-1.98
15,GGAUCUUCUCGAUCUAACAAAAAAGACAAAUCUGCCACAAAGCUCGAGAGCAUCUUCGGAUGCAGAGGCGGCAGCCGUGGGUGGCGCGAUAGCGCCAACGUUCUCAACUAUGACACGCAAAACGCGUGCUCCGUUGAAUGGAGUUUAUCAUG [U45C U77G C79G],≤ -4.2
16,GGAUCUUCUCGAUCUAACAAAAAAGACAAAUCUGCCACAAAGCUGGAUAGCAUCUUCGGUUGCAGAGGCGGAAGCCUUCCGUGGCGCGAUAGCGCAAACGUGCUCAACUAUGACACGCAAAACGCGUGCUCCGUUGAAUGGAGUUUAUCAUG [U45G G48U A60U C72A G80C C96A U102G],≤ -4.2
17,GGAUCUUCUCGAUCUAACAAAAAAGACAAAUCUGCCACAAAGCUGGAGAGCAUCUUCGGAUGCAGAGGCGGCAGCCUUCGGUGGGGCGAUAGCGCCAACGUUCUCAACUAUGACACGCAAAACGCGUGCUCCGUUGAAUGGAGUUUAUCAUG [U45G C85G],-3.44
18,GGAUCUUCUCGAUCUAACAAAAAAGACAAAUCUGCCACAAAGCUGGCGAGCAUCUUCGGAUGCAGAGGCGGCAGCCUUCGGUGGCGCGAUAGCGCCAACGUUCUCAACUAUGACACGCAAAACGCGUGCUCCGUUGAAUGGGGUUUAUCAUG [U45G A47C A142G],-3.91
19,GGAUCUUCUCGAUCUAACAAAAAAGACAAAUCUGCCACAAAGCUGGAGAGCAUAUUCGGAUGCAGAGGCGGCAGCCUUCGGUGGCGGGAUAGCGCCAACGUUCUCAACUAUGACACGCAAUAGGCGUGCUCCGUUGAAUGGAGUUUAUCAUG [U45G C54A C87G A121U C123G],≤ -4.2

row,Variant,polymerase ribozyme fitness (log ratio)
1,GGAUCUUCUCGAUCUAACAAAAAAGACAAAUCUGCCACAAAGCUGGAGAGCAUCUUCGGAUGCAGAGGCGGCAGCCUUCGGUGGCGCGAUAGAGUCAACGUUCUCAACUAUGACACGCAAAACGCGUGCUCCGUUGAAUGGAGUUUAUCAUG [U45G C93A C95U],-3.98
2,GGAUCUUCUCGAUCUAACAAAAAAGACAAAUCUGCCACAAAGCUGGAGAGCUUCUUCGGAUGCAGAGGCGGCAGCCUUCGGUGGCGCGAUAGCGCCAACGUUCUCAACUAUGACACGCAAAACGCGUGCUCCGUUGAAUGGAGUUUAUCAUG [U45G A52U],-3.15
3,GGAUCUUCUCGAUCUAACAAAAAAGACAAAUCUGCCACAAAGCUGGAGAGCAUCUUCGGAUGCAGAGGAGGCAGCCUUCGGUGGCGCGAUAGCGCCAACGUUCUCAACUAUGACACGCAAAACGCGUGCUCCGUUGAAUGGAGUUUAUCAUG [U45G C69A],-1.95
4,GGAUCUUCUCGAUCUAACAAAAAAGACAAAUCUGCCACAAAGCUGGAGAGCAUCUUCGGAUGCAGAGGCGGCAGCAUUCGGUGGCACGAUAGCGCCAACGUUCUCAACUAUGACACGCAAAACGCGUGCUCCGUUGAAUGCAGUUUAUGAUG [U45G C76A G86A G141C C149G],≤ -4.2
5,GGAUCUUCUCGAUCUAACAAAAAAGACAAAUCUGCCACAAAGCUGGAGAGCAUCUUCGGAUGCAGAGGCGGCAGCCUUCGGUGGCGUGAUAGCGCCAACGUUCUCAACUAUGACACGCAAAACGCGUGCUCCGUUGAAAGGAGUUUAUCAUG [U45G C87U U139A],≤ -4.2
6,GGAUCUUCUCGAUCUAACAAAAAAGACAAAUCUGCCACAAAGCUGGAGAGCAUCUUCGGAUGCAGCGGCGGCAGCAUUCGGUGGCUCGAUAGCGCUAACGUUCUCAACUAUGACACGCAAAACGCGUGCUCCGUUGAAUGGAGUUUAUCAUG [U45G A66C C76A G86U C96U],≤ -4.2
7,GGAUCUUCUCGAUCUAACAAAAAAGACAAAUCUGCCACAAAGCUGGAGAGCAUCUUAGGAUGCAGAGGCGGCAGCCUUCGGUGGCGCGAUAGAGCCAACGUUCUCAACUAUGACACGCAAAACACGUGCUCCGUUGAAUGGAGUUUAUCAUG [U45G C57A C93A G124A],-3.64
8,GGAUCUUCUCGAUCUAACAAAAAAGACAAAUCUGCCACAAAGCUGGAGAGCAUCUUCGGAUGCAGAGGCGGCAGCCUUCGGUAGCGCGAUAGCGCCAACGUUCUCAACUAUGACACGCAAAACGCGUGCUCCGUUGAAUGGAGUUUAUCAUG [U45G G83A],-0.848
9,GGAUCUUCUCGAUCUAACAAAAAAGACAAAUCUGCCACAAAGCUGGAGAGCAUCUUCGGAUGCAGAGGCGGCAGCCUUCGGUGGCGUGAUAGCGCCAACGCUCUCAACUAUGACACGCAAAACGCGUGCUCCGUUGAAUGGAGUUUAUCAUG [U45G C87U U101C],-3.99
10,GGAUCUUCUCGAUCUAACAAAAAAGACAAAUCUGCCACAAAGCUGGAGAGCGUCUUCGGAUGCAGAGGCGGCAGCCUUCGGCGGCGCGAUAGCGCCAACGGUCUCAACUAUGACACGCAAAACGCGUGCUUCGUUGAAUGGAGUUUAUCAUG [U45G A52G U82C U101G C131U],-3.32
11,GGAUCUUCUCGAUCUAACAAAAAAGACAAAUCUGCCACAAAGCUGGGGAGCAUUUUCGGAUGCAGAGGCGGCAGCCUUCGGUGGCGCGAUAGGGCCAACGUUCUCAACUAUGACACGCAAAACGCGUGCUCCGUUGAAUGGAGUUUAUCAUG [U45G A47G C54U C93G],≤ -4.2
12,GGAUCUUCUCGAUCUAACAAAAAAGACAAAUCUGCCACAAAGCUGGAGAGCAUCUUCGGAUGCAGAGUCGGCAGCCUUCGGUGGCGCGAUAGCGCCAACGUUCUCAACUAUGACACGCAAAACGCGUGCUCCGUUGAAUGGAGUUUAUCAUG [U45G G68U],≤ -4.2
13,GGAUCUUCUCGAUCUAACAAAAAAGACAAAUCUGCCACAAAGCUGGUGCGCAUCUUCGGAAGCAGAGGCGGCAGCAUUCGGUGGCGAGAUAGCGCCAACGUUCUCAACUAUGACACGCAAAACGCGUGCUCCGUUGAAUGGAGUUGAUCAUG [U45G A47U A49C U61A C76A C87A U146G],≤ -4.2
14,GGAUCUUCUCGAUCUAACAAAAAAGACAAAUCUGCCACAAAGCUGGAGAGCAUCUUCGGAUGCAGAGGCAGCAGCCUUCGGUGGCGUGAUAGCGCCAACGUUCUCAACUAUGACACGCAAAACGCGUGCUCCGUUGAAUGGAGGUUAUCAUG [U45G G70A C87U U144G],≤ -4.2
15,GGAUCUUCUCGAUCUAACAAAAAAGACAAAUCUGCCACAAAGCUGGAGAGCAUCUUCGGAUGCAGAGGCGGCAGUCUUCGGUGGCGCGAUAGCGCCAACGUUGUCAACUAUGACACGGAAAACGCGUGCUCCGUUGAAUGGAGUUUAUCAUG [U45G C75U C103G C118G],≤ -4.2
16,GGAUCUUCUCGAUCUAACAAAAAAGACAAAUCUGCCACAAAGCUCGAGAGCAUCUACGGAUGCAGAGGCGGCAGCCUUCGGUGGCGCGAUGGCGCCAACGUUCUCAACUAAGACACGCAAAACGCGUGCUCCGUUGAAUGGAGUUUAUCAUG [U45C U56A A91G U111A],≤ -4.2
17,GGAUCUUCUCGAUCUAACAAAAAAGACAAAUCUGCCACAAAGCUGGAGAGCAUCUUCGGAUGCAGAGGCGGCAGCCUUCCGUGGCGCGAUAGCGCCAACGUUCUCGACUAUGACACGCUAUACCCGUGCUCCUUUGAAUGGAGUUUAUCAUG [U45G G80C A106G A119U A121U G124C G133U],≤ -4.2
18,GGAUCUUCUCGAUCUAACAAAAAAGACAAAUCUGCCACAAAGCUGGAGAGCAUCUUCGGAUGCAGUGGCGGCAGCCCUCGGUGGCGCGAUAGCGCCAACGUUCUCAGCUAUGACACUCAAAACGCGUGCUCCGUUGAAUGGAGUUUAUCAUG [U45G A66U U77C A107G G117U],≤ -4.2
19,GGAUCUUCUCGAUCUAACAAAAAAGACAAAUCUGCCACAAAGCUGGAAAGCAUCUUCGGAUGCAGAGGCGGCAGCCUUCGGUGGCGCCAUAGCGCCAACGUUCUCGACUAUGACACGCAAAACGCGUGCUCCGUUGAAUGGAGUUUAUCAUG [U45G G48A G88C A106G],≤ -4.2
